Ends that are not written are not given here.
Columns and labels:
Test in all cases: peptide microarray
ApoC3 peptide … F47D = biological target: T1, ApoC3 peptide … F47D (human, not fully specified (bridges); also: cyclic constrained)
T1 peptide: ARGWVTDGDSSLK
Description: (§1) Amino acids G41 and G46 were highly conserved; substitution of G41 by E, N or Q caused a decrease of spot intensities by ˜70% or higher, whereas exchange of G46 by N was hardly tolerated and resulting in 90% reduced spot intensities. […] Amino acid positions V43, D45 and K51 were also well conserved with a clear preference for the wild type amino acids and a certain tolerance particularly for conservative exchanges by Y, F and I (V43), A, E and K (D45) as well as by R (K51). […] Replacement of V43 by Y, however, increased spot intensity by two fold. Amino acid positions W42 and 48S were poorly conserved or even variable; both positions were susceptible for only a number of amino acid exchanges, and exchange by F, S and T (W42) or by E (S48) even caused a two- to three-fold increase of spot intensity. Amino acid positions A39 and R40 were variable.
(§2) Pre: staining of one of the ApoC3 peptide microarrays was done with the secondary antibody goat anti-human IgG (Fe) DyLight680 (1:5000) and control antibody mouse monoclonal anti-HA (12CA5) DyLight800 (1:2000) to investigate background interactions of the secondary antibody with the antigen-derived peptides that could interfere with the main assays. Subsequent incubation of other ApoC3 peptide microarrays with antibody samples was followed by staining with secondary and control antibodies as well as read-out at scanning intensities of 7/7 (red/green). The additional HA peptides framing the peptide arrays were stained as internal quality control to confirm the assay quality and the peptide microarray integrity.

ApoC3 peptide … S49T = biological target: T2, ApoC3 peptide … S49T (human, not fully specified (bridges); also: cyclic constrained)
T2 peptide: ARGWVTDGFSTLK
Description: as §1, §2

ApoC3 peptide … K51E = biological target: T3, ApoC3 peptide … K51E (human, thioether (positions not given here); also: cyclic constrained)
T3 peptide: ARGWVTDGFSSLE
Description: as §1, §2

ApoC3 peptide … G46E = biological target: T4, ApoC3 peptide … G46E (human, not fully specified (bridges); also: cyclic constrained)
T4 peptide: ARGWVTDEFSSLK
Description: as §1, §2

ApoC3 peptide … S48L = biological target: T5, ApoC3 peptide … S48L (human, not fully specified (bridges); also: cyclic constrained)
T5 peptide: ARGWVTDGFLSLK
Description: as §1, §2

ApoC3 peptide … F47I = biological target: T6, ApoC3 peptide … F47I (human, not fully specified (bridges); also: cyclic constrained)
T6 peptide: ARGWVTDGISSLK
Description: as §1, §2

ApoC3 peptide … W42G = biological target: T7, ApoC3 peptide … W42G (human, not fully specified (bridges); also: cyclic constrained)
T7 peptide: ARGGVTDGFSSLK
Description: as §1, §2

ApoC3 peptide … F47T = biological target: T8, ApoC3 peptide … F47T (human, also: cyclic constrained)
T8 peptide: ARGWVTDGTSSLK
Description: as §1, §2

ApoC3 peptide … F47W = biological target: T9, ApoC3 peptide … F47W (human, also: cyclic constrained)
T9 peptide: ARGWVTDGWSSLK
Description: as §1, §2

ApoC3 peptide … A39N = biological target: T10, ApoC3 peptide … A39N (human, cyclic constrained)
T10 peptide: NRGWVTDGFSSLK
Description: as §1, §2

ApoC3 peptide … S48C = biological target: T11, ApoC3 peptide … S48C (human, not fully specified; cyclic constrained)
T11 peptide: ARGWVTDGFCSLK
Description: as §1, §2

ApoC3 peptide … S48D = biological target: T12, ApoC3 peptide … S48D (human, not fully specified; cyclic constrained)
T12 peptide: ARGWVTDGFDSLK
Description: as §1, §2

ApoC3 peptide … K51W = biological target: T13, ApoC3 peptide … K51W (human, not fully specified; cyclic constrained)
T13 peptide: ARGWVTDGFSSLW
Description: as §1, §2

ApoC3 peptide … D45N = biological target: T14, ApoC3 peptide … D45N (human, cyclic constrained)
T14 peptide: ARGWVTNGFSSLK
Description: as §1, §2

ApoC3 peptide … D45Y = biological target: T15, ApoC3 peptide … D45Y (human, not fully specified (bridges); also: cyclic constrained)
T15 peptide: ARGWVTYGFSSLK
Description: as §1, §2

ApoC3 peptide … F47G = biological target: T16, ApoC3 peptide … F47G (human, not fully specified (bridges); also: cyclic constrained)
T16 peptide: ARGWVTDGGSSLK
Description: as §1, §2

ApoC3 peptide … V43F = biological target: T17, ApoC3 peptide … V43F (human, not fully specified; cyclic constrained)
T17 peptide: ARGWFTDGFSSLK
Description: as §1, §2

ApoC3 peptide … S48K = ApoC3 peptide … S48K (human, cyclic constrained)
Description: as §1, §2

ApoC3 peptide … G46Q = biological target: T18, ApoC3 peptide … G46Q (human, not fully specified (bridges); also: cyclic constrained)
T18 peptide: ARGWVTDQFSSLK
Description: as §1, §2

ApoC3 peptide … W42A = biological target: T19, ApoC3 peptide … W42A (human, not fully specified (bridges); also: cyclic constrained)
T19 peptide: ARGAVTDGFSSLK
Description: as §1, §2

ApoC3 peptide … V43L = biological target: T20, ApoC3 peptide … V43L (human, not fully specified; cyclic constrained)
T20 peptide: ARGWLTDGFSSLK
Description: as §1, §2

ApoC3 peptide … W42D = biological target: T21, ApoC3 peptide … W42D (human, not fully specified (bridges); also: cyclic constrained)
T21 peptide: ARGDVTDGFSSLK
Description: as §1, §2

ApoC3 peptide … L50A = biological target: T22, ApoC3 peptide … L50A (human, not fully specified; cyclic constrained)
T22 peptide: ARGWVTDGFSSAK
Description: as §1, §2

ApoC3 peptide … T44R = biological target: T23, ApoC3 peptide … T44R (human, not fully specified (bridges); also: cyclic constrained)
T23 peptide: ARGWVRDGFSSLK
Description: as §1, §2

ApoC3 peptide … A39R = biological target: T24, ApoC3 peptide … A39R (human, not fully specified (bridges); also: cyclic constrained)
T24 peptide: RRGWVTDGFSSLK
Description: as §1, §2

ApoC3 peptide … G41L = biological target: T25, ApoC3 peptide … G41L (human, also: cyclic constrained)
T25 peptide: ARLWVTDGFSSLK
Description: as §1, §2

ApoC3 peptide … S48M = ApoC3 peptide … S48M (human, cyclic constrained)
Description: as §1, §2

ApoC3 peptide … S49K = biological target: T26, ApoC3 peptide … S49K (human, cyclic constrained)
T26 peptide: ARGWVTDGFSKLK
Description: as §1, §2

ApoC3 peptide … T44C = biological target: T27, ApoC3 peptide … T44C (human, not fully specified (bridges); also: cyclic constrained)
T27 peptide: ARGWVCDGFSSLK
Description: as §1, §2

ApoC3 peptide … D45S = biological target: T28, ApoC3 peptide … D45S (human, cyclic constrained)
T28 peptide: ARGWVTSGFSSLK
Description: as §1, §2

ApoC3 peptide … R40K = biological target: T29, ApoC3 peptide … R40K (human, not fully specified (bridges); also: cyclic constrained)
T29 peptide: AKGWVTDGFSSLK
Description: as §1, §2

B1: anti-ApoC3 antibody 14C7 (antibody, V domains shown)
VH: QVQVQESGPGLVKPSQTLSLTCTVSGGSITTNSYYWSWIRQPPGKGLEWMGAIDYSGDTYYSPSLKSRTSISRDTSKNQFTLQLTSVTPEDTAVYYCVSRIPTGEYWGQGTQVTVSS
VL: QTVVTQEPSLSVSPGGTVTLTCGLNSGSVTSSNYPDWYQQTPGQAPRLLIYNTNSRHSGVPSRFSGSISGNKAALTITGAQPEDEADYYCALYMGSDSVVFGGGTHLTVL
notes: it was detected with goat anti-human IgG (Fc); also called mAb 14C7; llama antibody 14C7
ApoC3 peptide … F47D
  % of binding to wild-type peptide: 0%
ApoC3 peptide … S49T
  % of binding to wild-type peptide: 6.21%
ApoC3 peptide … K51E
  % of binding to wild-type peptide: 4.71%
ApoC3 peptide … G46E
  % of binding to wild-type peptide: 0%
ApoC3 peptide … S48L
  % of binding to wild-type peptide: 19.6%
ApoC3 peptide … F47I
  % of binding to wild-type peptide: 0%
ApoC3 peptide … W42G
  % of binding to wild-type peptide: 107%
ApoC3 peptide … F47T
  % of binding to wild-type peptide: 0%
ApoC3 peptide … F47W
  % of binding to wild-type peptide: 1.57%
ApoC3 peptide … A39N
  % of binding to wild-type peptide: 103%
ApoC3 peptide … S48C
  % of binding to wild-type peptide: 56.8%
ApoC3 peptide … S48D
  % of binding to wild-type peptide: 71.6%
ApoC3 peptide … K51W
  % of binding to wild-type peptide: 0%
ApoC3 peptide … D45N
  % of binding to wild-type peptide: 4.85%
ApoC3 peptide … D45Y
  % of binding to wild-type peptide: 0%
ApoC3 peptide … F47G
  % of binding to wild-type peptide: 0%
ApoC3 peptide … V43F
  % of binding to wild-type peptide: 68.9%
ApoC3 peptide … S48K
  % of binding to wild-type peptide: 90%
ApoC3 peptide … G46Q
  % of binding to wild-type peptide: 0%
ApoC3 peptide … W42A
  % of binding to wild-type peptide: 116%
ApoC3 peptide … V43L
  % of binding to wild-type peptide: 429%
ApoC3 peptide … W42D
  % of binding to wild-type peptide: 108%
ApoC3 peptide … L50A
  % of binding to wild-type peptide: 0%
ApoC3 peptide … T44R
  % of binding to wild-type peptide: 0%
ApoC3 peptide … A39R
  % of binding to wild-type peptide: 89.4%
ApoC3 peptide … G41L
  % of binding to wild-type peptide: 6.27%
ApoC3 peptide … S48M
  % of binding to wild-type peptide: 121%
ApoC3 peptide … S49K
  % of binding to wild-type peptide: 3.23%
ApoC3 peptide … T44C
  % of binding to wild-type peptide: 0%
ApoC3 peptide … D45S
  % of binding to wild-type peptide: 20.8%
ApoC3 peptide … R40K
  % of binding to wild-type peptide: 58.1%

— patent publication US20190241648A1 (STATEN BIOTECHNOLOGY B V, published 2019)
